Data set [1] is described as follows: in vitro stability in 10% human plasma, LC-MS/MS. The format is in vitro ADME. The settings on record: room temperature, 100 ng/ml; for % Remaining: 0 h. The procedure: (§1) Consequently, the stability of select, non-PEGylated analogs was evaluated in vitro in the presence of 10% rat or human plasma. Briefly, samples of each peptide were diluted to 100 ng/ml into PBS containing 10% of rat or human plasma. Each sample was then incubated at room temperature and analyzed by LC-MS/MS to quantitate the intact peptide remaining at select time points over 6 hours.

Data set [2] can be described thus: rat pharmacokinetic studies. The settings on record: 2 mg/kg; for AUC0-inf / AUC0-t / CL / MRT / Vss / t1/2 / CL/F / Cmax / F % / Tmax: rat, mean, n = 3.
Protocol: Rat pharmacokinetic studies. […] There were three rats per group (n=3), each weighing 250-325 g. Each group received either a 2 mg/kg intravenous or subcutaneous discrete administration. The approximate dose volume was 0.3 mL per rat. Approximately 0.25 mL of whole blood was taken per time point at the following post-dose collection times for the intravenous groups (in hours): 0.083, 0.25, 0.5, 1, 2, 4, 6, 8, 24, 48, 72, 96 and the following time points for the subcutaneous groups (in hours): 0.25, 0.5, 1, 2, 4, 6, 8, 24, 48, 72, 96. Whole blood samples were collected in microtainer vials containing EDTA as anticoagulant and were kept on wet ice until processed for plasma. The plasma was obtained by centrifuging the whole blood for approximately 5 min at 11,500 rpm. Plasma was transferred to new tubes and stored frozen at approximately −70° C. until quantitative analysis. […] The individual sample concentrations for each time point were averaged (n=3) within a given dose group using Excel 2000 software. The averaged plasma concentration-time data were analyzed by noncompartmental methods using WinNonlin v.3.3 software. Nominal sample times were used in the pharmacokinetic analysis. The area under the concentration-time curve was calculated using the linear/log trapezoidal method to determine exposure.
The nature of data set [3]: in vitro stability in 10% rat plasma, LC-MS/MS. The format is in vitro ADME. Conditions: room temperature, 100 ng/ml; for % Remaining: 0 h. The protocol:
as §1

A further data set deals with T1, CGRP1 receptor (Homo sapiens, UniProt O60894+Q16602).
T1 construct: SK-N-MC cells express CRLR and RAMP1, which form CGRP1 receptor; endogenous in cells; host or cells: SK-N-MC human neuroblastoma cells
The data set can be described thus: in vitro CGRP1 receptor mediated cAMP assay in SK-N-MC cells. In kind it is cell-based. Put shortly:
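Intracellular cAMP served as the Gs-coupled CGRP1 readout in endogenously expressing SK-N-MC cells. After a 15-minute room-temperature step in plasma-free medium, cell lysates (30 minutes, 37° C) went into a competitive ELISA with a cAMP-AP conjugate and anti-cAMP antibody for 1 hour, then a 30-minute substrate enhancer step before reading.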
On the technique in general: Cyclic AMP is a second messenger, typically raised through Gs and lowered through Gi signalling.

PEG = not defined here

As a reminder, the amount remaining is the share of the starting amount still present when the sample was taken. The MRT is a mean duration of stay, worked out from the concentration-time curve. For orientation: Vss means the apparent volume that relates the amount in the body to the concentration in plasma or blood. Low values mean little distribution into tissue, high ones wide distribution into tissue. What is called CL/F is clearance divided by bioavailability, as obtained after extravascular dosing. Broadly, the Cmax is the maximum level reached in the sampled fluid or tissue. One may read the Tmax as the time at which the peak concentration occurs.

T1 sequence (Q16602 23-461): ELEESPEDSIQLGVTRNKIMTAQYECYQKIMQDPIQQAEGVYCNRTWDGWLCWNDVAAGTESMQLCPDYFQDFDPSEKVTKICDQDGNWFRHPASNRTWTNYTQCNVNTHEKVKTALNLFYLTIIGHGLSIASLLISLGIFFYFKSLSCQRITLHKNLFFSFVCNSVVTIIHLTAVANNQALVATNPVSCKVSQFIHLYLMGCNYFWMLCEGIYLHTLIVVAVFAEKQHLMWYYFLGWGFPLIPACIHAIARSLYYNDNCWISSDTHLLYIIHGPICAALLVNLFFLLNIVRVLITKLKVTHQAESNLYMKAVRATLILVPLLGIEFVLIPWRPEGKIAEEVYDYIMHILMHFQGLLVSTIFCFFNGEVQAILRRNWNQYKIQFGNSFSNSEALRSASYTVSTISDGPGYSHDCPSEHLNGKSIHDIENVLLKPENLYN
T1 sequence (O60894 27-148): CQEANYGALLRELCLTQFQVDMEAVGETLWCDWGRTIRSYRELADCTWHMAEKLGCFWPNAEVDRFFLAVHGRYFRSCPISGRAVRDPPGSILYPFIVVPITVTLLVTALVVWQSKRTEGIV

“Ac-WVTHQLAGLLSQSGGVVRKNFVPTDVGPFAF-NH2 [SEQ ID NO: 39]”: in data set [1], the “% Remaining” value is recorded as 100.0%; the amount remaining at 0.17 h, 100 ng/ml worked out at 74.2%; the amount remaining at 0.5 h, 100 ng/ml was 54%; the fraction remaining at 1 h, 100 ng/ml turned out to be 50.2%. In data set [1], this compound gave a share remaining at 2 h, 100 ng/ml of 36.7%; an amount remaining at 3 h, 100 ng/ml of 15.8%; an amount remaining at 4 h, 100 ng/ml of 11.3%; an amount remaining at 5 h, 100 ng/ml of 6.3%. Also, the fraction remaining at 6 h, 100 ng/ml in data set [1] was 5.2%.

Regarding “SEQ ID NO: 32: PEGylated R11Cit, R18Cit analog (product of SEQ ID NO:31) (WVTHXLAGLLSXSGGVVRKNFVPTDVGPFAF; PEGylated; citrulline at 11 and 18; CGRP peptide; MOD_RES (1)..(1): …ON; MISC_FEATURE (5)..(5): xaa=citrulline; MISC_FEATURE (12)..(12): xaa=citrulline; MISC_FEATURE (19)..(19): PEGylated; MOD_RES (31)..(31): AMIDATION)”, in data set [2] (IV), the AUC0-inf stood at 40431 ng·h/mL, the AUC0-t came out at 40250 ng·h/mL, the CL stood at 0.817 mL/min/kg and the MRT turned out to be 4.12 h. In data set [2] (IV), this compound gave a distribution volume (Vss) of 0.204 L/kg and a t1/2 of 42.78 h. For the same compound, in data set [2] (SC), the “AUC0-inf” value is 19046 ng·h/mL, the AUC0-t stood at 18933 ng·h/mL, the apparent clearance (CL/F) turned out to be 1.75 mL/min/kg and the Cmax was 1879 ng/mL. Besides, in data set [2] (SC), the F % amounted to 47%, the Tmax stood at 4.00 h and the t1/2 turned out to be 29.98 h.

As to “Ac-WVTHQLAGLLSQSGGVVRKNFVPTDVGPFAF-NH2 [compound 39]”, in data set [3], the “% Remaining” value worked out at 100.0%; the share remaining at 0.5 h, 100 ng/ml came out at 83.8%; the share remaining at 1 h, 100 ng/ml came to 66.2%; the share remaining at 2 h, 100 ng/ml worked out at 29.9%. In data set [3], this compound displayed a fraction remaining at 3 h, 100 ng/ml of 20.4%; a share remaining at 4 h, 100 ng/ml of 11.8%; a fraction remaining at 5 h, 100 ng/ml of 6.4%; a share remaining at 6 h, 100 ng/ml of 4%.

“SEQ ID NO:32 (WVTHXLAGLLSXSGGVVRKNFVPTDVGPFAF; CGRP peptide; MOD_RES (1)..(1): …ON; MISC_FEATURE (5)..(5): xaa=citrulline; MISC_FEATURE (12)..(12): xaa=citrulline; MISC_FEATURE (19)..(19): PEGylated; MOD_RES (31)..(31): AMIDATION)”: the “antagonist activity in cAMP assay, in words” value in the data set with CGRP1 receptor is on record as “relatively minor loss of in vitro antagonist activity”. The “mean residence time (MRT) longer compared to SEQ ID NO:15” value in data set [2] (intravenous) is 4 times. In data set [2] (subcutaneous), the “bioavailablity (F %)” value is reported as 47% and the “exposure (AUC) increase compared to SEQ ID NO:15” value is recorded as “about 15 fold”.

In data set [2] (IV), “SEQ ID NO: 40: double glutamine analog PEGylated through amine linkage (Ac-WVTHQLAGLLSQSGGVVRK(PEG)NFVPTDVGPFAF-NH2; reading uncertain)” came in with an AUC0-inf of 10666 ng·h/mL, an AUC0-t of 10651 ng·h/mL, a CL of 3.12 mL/min/kg and an MRT of 2.63 h. In data set [2] (IV), this compound had a Vss of 0.496 L/kg and a t1/2 of 32.57 h. In data set [2] (SC), the “AUC0-inf” value amounted to 1223 ng·h/mL, the AUC0-t was 1212 ng·h/mL, the apparent clearance CL/F worked out at 27.23 mL/min/kg and the Cmax is listed as 121 ng/mL. In data set [2] (SC), the F % is on record as 11%, the time of peak concentration (Tmax) is listed as 4.00 h and the t1/2 is recorded as 27.15 h.

In the case of “Ac-WVTHRLAGLLSQSGGVVRKNFVPTDVGPFAF-NH2 [SEQ ID NO: 37]”, in data set [1], the “% Remaining” value came to 100.0%; the share remaining at 0.17 h, 100 ng/ml turned out to be 59%; the fraction remaining at 0.5 h, 100 ng/ml is 20.6%; the share remaining at 1 h, 100 ng/ml was 10%. In data set [1], this compound registered a share remaining at 2 h, 100 ng/ml of 2.3%; a fraction remaining at 3 h, 100 ng/ml of 1.3%; a share remaining at 4 h, 100 ng/ml of 0.7%; a share remaining at 5 h, 100 ng/ml of 0.7%. Also, the share remaining at 6 h, 100 ng/ml in data set [1] was 0%.

On to “SEQ ID NO: 15: 20 kDa PEG conjugate of SEQ ID NO:7 (reductive alkylation) (Ac-WVTHRLAGLLSRSGGVVRK(20 kDa PEG)NFVPTDVGPFAF-NH2)”, for which, in data set [2] (IV), the AUC0-inf was found to be 12959 ng·h/mL, the AUC0-t was determined as 12940 ng·h/mL, the CL turned out to be 2.57 mL/min/kg and the MRT is 1.10 h. Moreover, in data set [2] (IV), the Vss was found to be 0.174 L/kg and the t1/2 is given as 10.60 h. In data set [2] (SC), the “AUC0-inf” value turned out to be 1542 ng·h/mL, the AUC0-t is 1264 ng·h/mL, the apparent clearance (CL/F) is 20.95 mL/min/kg and the peak concentration (Cmax) is reported as 137 ng/mL. In addition, in data set [2] (SC), the Tmax was found to be 2.00 h and the t1/2 worked out at 22.37 h.

On to “Ac-WVTHRLAGLLSQSGGVVRKNFVPTDVGPFAF-NH2 [compound 37]”, for which, in data set [3], the “% Remaining” value came out at 100.0%; the amount remaining at 0.5 h, 100 ng/ml turned out to be 62.7%; the amount remaining at 1 h, 100 ng/ml was 39.5%; the share remaining at 2 h, 100 ng/ml came out at 10.5%. Also, in data set [3], the share remaining at 3 h, 100 ng/ml was found to be 4.7%; the fraction remaining at 4 h, 100 ng/ml worked out at 2.5%; the share remaining at 5 h, 100 ng/ml was determined as 1.3%; the share remaining at 6 h, 100 ng/ml was determined as 0.7%.

Turning to `CC(=O)N[C@@H](Cc1c[nH]c2ccccc12)C(=O)N[C@H](C(=O)N[C@H](C(=O)N[C@@H](Cc1cnc[nH]1)C(=O)N[C@@H](CCCCNC(=N)N)C(=O)N[C@@H](CC(C)C)C(=O)N[C@@H](C)C(=O)NCC(=O)N[C@@H](CC(C)C)C(=O)N[C@@H](CC(C)C)C(=O)N[C@@H](CO)C(=O)N[C@@H](CCCCNC(=N)N)C(=O)N[C@@H](CO)C(=O)NCC(=O)NCC(=O)N[C@H](C(=O)N[C@H](C(=O)N[C@@H](CCCNC(=N)N)C(=O)N[C@@H](CCCCN)C(=O)N[C@@H](CC(N)=O)C(=O)N[C@@H](Cc1ccccc1)C(=O)N[C@H](C(=O)N1CCC[C@H]1C(=O)N[C@H](C(=O)N[C@@H](CC(=O)O)C(=O)N[C@H](C(=O)NCC(=O)N1CCC[C@H]1C(=O)N[C@@H](Cc1ccccc1)C(=O)N[C@@H](C)C(=O)N[C@@H](Cc1ccccc1)C(N)=O)C(C)C)[C@@H](C)O)C(C)C)C(C)C)C(C)C)[C@@H](C)O)C(C)C` [SEQ ID NO: 25], in data set [1], the “% Remaining” value worked out at 100.0%; the fraction remaining at 0.17 h, 100 ng/ml came to 88.3%; the fraction remaining at 0.5 h, 100 ng/ml was 47.3%; the fraction remaining at 1 h, 100 ng/ml turned out to be 28.7%. In data set [1], this compound yielded a share remaining at 2 h, 100 ng/ml of 11%; a fraction remaining at 3 h, 100 ng/ml of 5.4%; a share remaining at 4 h, 100 ng/ml of 3.1%; a share remaining at 5 h, 100 ng/ml of 3.6%. This compound came in with a share remaining at 6 h, 100 ng/ml in data set [1] of 2.8%.

In data set [2] (IV), “SEQ ID NO: 26: PEGylated double homoarginine analog (WVTHXLAGLLSXSGGVVRKNFVPTDVGPFAF; PEGylated; homoarginine residues; CGRP peptide; MOD_RES (1)..(1): …ON; MISC_FEATURE (5)..(5): xaa=homoarginine; MISC_FEATURE (12)..(12): xaa=homoarginine; MISC_FEATURE (19)..(19): PEGylated; MOD_RES (31)..(31): AMIDATION)” gave an AUC0-inf of 24555 ng·h/mL, an AUC0-t of 24546 ng·h/mL, a CL of 1.35 mL/min/kg and an MRT of 1.01 h. Moreover, in data set [2] (IV), the distribution volume (Vss) amounted to 0.083 L/kg and the t1/2 came to 7.39 h. Further, in data set [2] (SC), the “AUC0-inf” value stood at 1204 ng·h/mL, the AUC0-t is 1188 ng·h/mL, the CL/F is 27.67 mL/min/kg and the Cmax was 143 ng/mL. In data set [2] (SC), the Tmax worked out at 2.00 h and the t1/2 turned out to be 26.17 h.

Turning to `CC(=O)N[C@@H](Cc1c[nH]c2ccccc12)C(=O)N[C@H](C(=O)N[C@H](C(=O)N[C@@H](Cc1cnc[nH]1)C(=O)N[C@@H](CCCCNC(=N)N)C(=O)N[C@@H](CC(C)C)C(=O)N[C@@H](C)C(=O)NCC(=O)N[C@@H](CC(C)C)C(=O)N[C@@H](CC(C)C)C(=O)N[C@@H](CO)C(=O)N[C@@H](CCCCNC(=N)N)C(=O)N[C@@H](CO)C(=O)NCC(=O)NCC(=O)N[C@H](C(=O)N[C@H](C(=O)N[C@@H](CCCNC(=N)N)C(=O)N[C@@H](CCCCN)C(=O)N[C@@H](CC(N)=O)C(=O)N[C@@H](Cc1ccccc1)C(=O)N[C@H](C(=O)N1CCC[C@H]1C(=O)N[C@H](C(=O)N[C@@H](CC(=O)O)C(=O)N[C@H](C(=O)NCC(=O)N1CCC[C@H]1C(=O)N[C@@H](Cc1ccccc1)C(=O)N[C@@H](C)C(=O)N[C@@H](Cc1ccccc1)C(N)=O)C(C)C)[C@@H](C)O)C(C)C)C(C)C)C(C)C)[C@@H](C)O)C(C)C` [compound 25], in data set [3], the “% Remaining” value stood at 100.0%; the amount remaining at 0.5 h, 100 ng/ml came out at 76.9%; the amount remaining at 1 h, 100 ng/ml came to 58.1%; the share remaining at 2 h, 100 ng/ml came to 27.5%. Moreover, in data set [3], the amount remaining at 3 h, 100 ng/ml was found to be 21.3%; the fraction remaining at 4 h, 100 ng/ml was 16.3%; the fraction remaining at 5 h, 100 ng/ml was determined as 11%; the fraction remaining at 6 h, 100 ng/ml came out at 7.1%.
